For 42 variants, abundance fitness results are on record in the Human Domainome abundance scans (Beltran et al. 2025).

± gives the uncertainty stated by the source.

To fix the notation:
B1: Tumor protein p73, residues 487 to 549; numbered along this chain, O15350 (parent)
chain: YHADPSLVSFLTGLGCPNCIEYFTSQGLQSIYHLQNLTIEDLGALKIPEQYRMTIWRGLQDLK

Variants of B1 are the subject of this data set. In words: abundance fitness (aPCA) (normalised: wild type 0, dead -1); higher = more abundant; growth selection in yeast, the domain comes from the species named. Conditions: Homo sapiens.
Turning to YHADPSLVSFLTGLGCPNCIEYFTSQGLQSIYHLQNLTIEDLGALKIPEQYRMTIWRYLQDLK [G58Y], the abundance fitness is -0.723 ± 0.28.
To YHADPSLVSFLTGLGCPNCIEYFTSQGLQSIYHLQNLTIEDLGALKIPEQYRMTIWRSLQDLK [G58S] belongs -0.104 ± 0.047; to YHADPSLVSFLTGLGCPNCIEYFTSQGLQSIYHLQNLTIEDLGALKIPEQYRMTIWRWLQDLK [G58W], -0.932 ± 0.12; to YHADPSLVSFLTGLGCPNCIEYFTSQGLQSIYHLQNLTIEDLGALKIPEQYRMTIWRMLQDLK [G58M], -0.896 ± 0.12.
The figure for YHADPSLVSFLTGLGCPNCIEYFTSQGLQSIYHLQNLTIEDLGALKIPEQYRMTIWRRLQDLK [G58R] is -0.197 ± 0.046.
The figure for YHADPSLVSFLTGLGCPNCIEYFTSQGLQSIYHLQNLTIEDLGALKIPEQYRMTIWRTLQDLK [G58T] is -0.358 ± 0.052; for YHADPSLVSFLTGLGCPNCIEYFTSQGLQSIYHLQNLTIEDLGALKIPEQYRMTIWRDLQDLK [G58D] it is -0.528 ± 0.086; for YHADPSLVSFLTGLGCPNCIEYFTSQGLQSIYHLQNLTIEDLGALKIPEQYRMTIWRPLQDLK [G58P] it is -0.433 ± 0.075.
Consider YHADPSLVSFLTGLGCPNCIEYFTSQGLQSIYHLQNLTIEDLGALKIPEQYRMTIWRQLQDLK [G58Q], for which the abundance fitness was -0.117 ± 0.049.
To YHADPSLVSFLTGLGCPNCIEYFTSQGLQSIYHLQNLTIEDLGALKIPEQYRMTIWRILQDLK [G58I] belongs -0.68 ± 0.38; to YHADPSLVSFLTGLGCPNCIEYFTSQGLQSIYHLQNLTIEDLGALKIPEQYRMTIWRNLQDLK [G58N], -0.36 ± 0.078.
Turning to YHADPSLVSFLTGLGCPNCIEYFTSQGLQSIYHLQNLTIEDLGALKIPEQYRMTIWRLLQDLK [G58L], the abundance fitness was -1.02 ± 0.1.
The figure for YHADPSLVSFLTGLGCPNCIEYFTSQGLQSIYHLQNLTIEDLGALKIPEQYRMTIWRVLQDLK [G58V] is -0.846 ± 0.082.
Take YHADPSLVSFLTGLGCPNCIEYFTSQGLQSIYHLQNLTIEDLGALKIPEQYRMTIWRHLQDLK [G58H]: the abundance fitness was -0.116 ± 0.11.
The figure for YHADPSLVSFLTGLGCPNCIEYFTSQGLQSIYHLQNLTIEDLGALKIPEQYRMTIWRFLQDLK [G58F] is -0.708 ± 0.17.
For YHADPSLVSFLTGLGCPNCIEYFTSQGLQSIYHLQNLTIEDLGALKIPEQYRMTIWRALQDLK [G58A], the abundance fitness is 0.038 ± 0.045.
The figure for YHADPSLVSFLTGLGCPNCIEYFTSQGLQSIYHLQNLTIEDLGALKIPEQYRMTIWRELQDLK [G58E] is 0.014 ± 0.033.
Take YHADPSLVSFLTGLGCPNCIEYFTSQGLQSIYHLQNLTIEDLGALKIPEQYRMTIWRGLQCLK [D61C]: the abundance fitness was -0.245 ± 0.11.
Take YHADPSLVSFLTGLGCPNCIEYFTSQGLQSIYHLQNLTIEDLGALKIPEQYRMTIWRGLQLLK [D61L]: the abundance fitness is -0.087 ± 0.041.
For the variant YHADPSLVSFLTGLGCPNCIEYFTSQGLQSIYHLQNLTIEDLGALKIPEQYRMTIWRGLQYLK [D61Y], the abundance fitness was -0.157 ± 0.1.
On to YHADPSLVSFLTGLGCPNCIEYFTSQGLQSIYHLQNLTIEDLGALKIPEQYRMTIWRGLQGLK [D61G], for which the abundance fitness is 0.035 ± 0.047.
The figure for YHADPSLVSFLTGLGCPNCIEYFTSQGLQSIYHLQNLTIEDLGALKIPEQYRMTIWRGLQPLK [D61P] is -0.092 ± 0.051.
The figure for YHADPSLVSFLTGLGCPNCIEYFTSQGLQSIYHLQNLTIEDLGALKIPEQYRMTIWRGLQTLK [D61T] is -0.003 ± 0.035.
As to YHADPSLVSFLTGLGCPNCIEYFTSQGLQSIYHLQNLTIEDLGALKIPEQYRMTIWRGLQALK [D61A], the abundance fitness is -0.136 ± 0.039.
For YHADPSLVSFLTGLGCPNCIEYFTSQGLQSIYHLQNLTIEDLGALKIPEQYRMTIWRGLQMLK [D61M], the abundance fitness was -0.002 ± 0.053.
The figure for YHADPSLVSFLTGLGCPNCIEYFTSQGLQSIYHLQNLTIEDLGALKIPEQYRMTIWRGLQWLK [D61W] is -0.127 ± 0.056.
YHADPSLVSFLTGLGCPNCIEYFTSQGLQSIYHLQNLTIEDLGALKIPEQYRMTIWRGLQVLK [D61V]: the abundance fitness was -0.104 ± 0.045.
Consider YHADPSLVSFLTGLGCPNCIEYFTSQGLQSIYHLQNLTIEDLGALKIPEQYRMTIWRGLQELK [D61E], for which the abundance fitness is -0.068 ± 0.068.
Consider YHADPSLVSFLTGLGCPNCIEYFTSQGLQSIYHLQNLTIEDLGALKIPEQYRMTIWRGLQFLK [D61F], for which the abundance fitness was -0.572 ± 0.25.
With YHADPSLVSFLTGLGCPNCIEYFTSQGLQSIYHLQNLTIEDLGALKIPEQYRMTIWRGLQNLK [D61N], the abundance fitness is -0.046 ± 0.041.
To YHADPSLVSFLTGLGCPNCIEYFTSQGLQSIYHLQNLTIEDLGALKIPEQYRMTIWRGLQHLK [D61H] belongs 0.039 ± 0.088; to YHADPSLVSFLTGLGCPNCIEYFTSQGLQSIYHLQNLTIEDLGALKIPEQYRMTIWRGLQQLK [D61Q], -0.126 ± 0.053; to YHADPSLVSFLTGLGCPNCIEYFTSQGLQSIYHLQNLTIEDLGALKIPEQYRMTIWRGLQKLK [D61K], -0.103 ± 0.047.
In the case of YHADPSLVSFLTGLGCPNCIEYFTSQGLQSIYHLQNLTIEDLGALKIPEQYRMTIWRGLQRLK [D61R], the abundance fitness was -0.066 ± 0.034.
On to YHADPSLVSFLTGLGCPNCIEYFTSQGLQSIYHLQNLTIEDLGALKIPEQYRMTIWRGLQILK [D61I], for which the abundance fitness is 0.006 ± 0.046.
For YHADPSLVSFLTGLGCPNCIEYFTSQGLQSIYHLQNLTIEDLGALKIPEQYRMTIWRGLQDIK [L62I], the abundance fitness is -0.044 ± 0.07.
On to YHADPSLVSFLTGLGCPNCIEYFTSQGLQSIYHLQNLTIEDLGALKIPEQYRMTIWRGLQDFK [L62F], for which the abundance fitness is -0.059 ± 0.053.
For the variant YHADPSLVSFLTGLGCPNCIEYFTSQGLQSIYHLQNLTIEDLGALKIPEQYRMTIWRGLQDSK [L62S], the abundance fitness was -0.083 ± 0.036.
For YHADPSLVSFLTGLGCPNCIEYFTSQGLQSIYHLQNLTIEDLGALKIPEQYRMTIWRGLQDNK [L62N], the abundance fitness turned out to be 0.058 ± 0.088.
With YHADPSLVSFLTGLGCPNCIEYFTSQGLQSIYHLQNLTIEDLGALKIPEQYRMTIWRGLQDPK [L62P], the abundance fitness is -0.032 ± 0.058.
The figure for YHADPSLVSFLTGLGCPNCIEYFTSQGLQSIYHLQNLTIEDLGALKIPEQYRMTIWRGLQDCK [L62C] is -0.117 ± 0.095; for YHADPSLVSFLTGLGCPNCIEYFTSQGLQSIYHLQNLTIEDLGALKIPEQYRMTIWRGLQDKK [L62K] it is -0.257 ± 0.08.
